B1: TA-C-mbp1 (C-terminal part of murine MBP1 fused with the transcription activating domain of Gal4) (other, not shown: large carriers)
chain: CTCPDGYRKIGPECVDIDECRYRYCQHRCVNLPGSFRCQCEPGFQLGPNNRSCVDVNECDMGAPCEQRCFNSYGTFLCRCNQGYELHRDGFSCSDIDECGYSSYLCQYRCVNEPGRFSCHCPQGYQLLATRLCQDIDECETGAHQCSEAQTCVNFHGGYRCVDTNRCVEPYVQVSDNRCLCPASNPLCREQPSSIVHRYMSITSERSVPADVFQIQATSVYPGAYNAFQIRSGNTQGDFYIRQINNVSAMLVLARPVTGPREYVLDLEMVTMNSLMSYRASSVLRLTVFVGAYTF
notes: Library clone from mouse embryo cDNA library pPC67; also called product of plasmid TA-C-MBP1
B2: DB-Fos (fusion protein between the DNA-binding domain of the Gal4 protein and a fragment of the human Fos protein, amino acids 132 to 211) (other, S. cerevisiae;human, UniProt P04386 1-147, looked up)
chain: MKLLSSIEQACDICRLKKLKCSKEKPKCAKCLKNNWECRYSPKTKRSPLTRAHLTEVESRLERLEQLFLLIFPREDLDMILKMDSLQDIKALLTGLFVQDNVNKDAVTDRLASVETDMPLTLRQHRISATSSSEESSNKGQRQLTVSLSPEEEEKRRIRRERNKMAAAKCRNRRRELTDTLQAETDQLEDEKSALQTEIANLLKEKEKLEFILAAHRPACKIPDDLG
notes: Control fusion in the yeast two-hybrid test; also called DE-Fos; pPC76 product
B3: TA-C-fibulin2 (C-terminal part of murine fibulin 2, amino acids 863 to 1195, fused with the transcription activating domain of Gal4) (other, not shown: large carriers)
chain: EGSECVDVNECETGVHRCGEGQLCYNLPGSYRCDCKPGFQRDAFGRTCIDVNECWVSPGRLCQHTCENTPGSYRCSCAAGFLLAADGKHCEDVNECETRRCSQECANIYGSYQCYCRQGYQLAEDGHTCTDIDECAQGAGILCTFRCVNVPGSYQCACPEQGYTMMANGRSCKDLDECALGTHNCSEAETCHNIQGSFRCLRFDCPPNYVRVSQTKCERTTCQDITECQTSPARITHYQLNFQTGLLVPAHIFRIGPAPAFAGDTISLTITKGNEEGYFVTRRLNAYTGVVSLQRSVLEPRDFALDVEMKLWRQGSVTTFLAKMYIFFTTFAP
notes: also called product of plasmid TA-C-FIB2

How the values were obtained:
[1] = target: T1, DB-wt (fragment 73-393 of wild-type human p53 fused with the DNA-binding domain of Gal4) (S. cerevisiae; human, UniProt P04386 1-147; P04637 73-393); assay: yeast two-hybrid, strain YCM17, URA3 and LacZ reporters
T1 construct: Yeast two-hybrid fusion; also called 73-393 wt in pPC97
Description: (§1) After the cotransformation, the various clones obtained were tested for the phenotypes associated with the URA3 and LacZ genes.

[2] = target: B3; assay: as above
Description: as §1

[3] = target: B1; assay: as above
Description: as §1

[4] = target: T2, DB-C-fibulin2 (C-fibulin2 fused with the DNA-binding domain of Gal4) (S. cerevisiae; murine, UniProt P04386 1-147, limits assumed); assay: yeast two-hybrid, strain PCY2, LacZ reporter
T2 construct: also called product of plasmid DB-C-FIB2

[5] = target: T3, DB-C-mbp1 (C-mbp1 fused with the DNA-binding domain of Gal4) (S. cerevisiae; murine, UniProt P04386 1-147); assay: yeast two-hybrid, strain PCY2, LacZ reporter
T3 construct: also called DB-C-mbpl; product of plasmid DB-C-MBP1

[6] = target: B2; assay: yeast two-hybrid, strain YCM17, URA3 and LacZ reporters
Description: as §1

[7] = target: T4, DB protein (DNA-binding domain of Gal4 alone, plasmid pPC97) (S. cerevisiae, UniProt P04386 1-147); assay: as above
T4 construct: Empty-vector control of the two-hybrid tests
Description: as §1

B1: no binding [1].

B2: no binding [2]; no binding [3].

B3: no binding [1].

B4: TA (transcription activating domain of Gal4 alone, plasmid pPC86) (other, S. cerevisiae, UniProt P04386 768-881, looked up)
chain: ANFNQSGNIADSSLSFTFTNSSNGPNLITTQTNSQALSQPIASSNVHDNFMNNEITASKIDDGNNSKPLSPGWTDQTAYNAFGITTGMFNTTTMDDVYNYLFDDEDTPPNPKKE
notes: Empty-vector control of the two-hybrid tests
B4: no binding [4]; no binding [5]; no binding [6]. B4: no binding [7]; no binding [1].
